Data on 1 protein can be found in publication PMC2858024, “Identification and molecular characterization of a novel flavin-free NADPH preferred azoreductase encoded by azoB in Pigmentiphaga kullae K24” (BMC Biochemistry, 2010).

Common to all, as to assay: purified protein
Substrate in series [1]: NC(=O)C1=CN([C@@H]2O[C@H](COP(=O)(O)OP(=O)(O)OC[C@H]3O[C@@H](n4cnc5c(N)ncnc54)[C@H](O)[C@@H]3O)[C@@H](O)[C@H]2O)C=CC1
The settings on record: apparent, Orange I 30 μM, potassium phosphate pH 6.8, room temperature (general assay).

Substrate in series [2]: NC(=O)C1=CN([C@@H]2O[C@H](COP(=O)(O)OP(=O)(O)OC[C@H]3O[C@@H](n4cnc5c(N)ncnc54)[C@H](OP(=O)(O)O)[C@@H]3O)[C@@H](O)[C@H]2O)C=CC1
The settings on record: apparent, Orange I 30 μM, potassium phosphate pH 6.8, room temperature (general assay).

Substrate in series [3]: O=S(=O)(O)c1ccc(N=Nc2ccc(O)c3ccccc23)cc1
To be noted: apparent, co-substrate NADPH 1 mM, potassium phosphate pH 6.8, room temperature (general assay).

What is called Km is the substrate concentration at which the rate is half of its maximum. One may read the Vmax as the top rate of the reaction or transport when substrate is in excess.

B1: AzoB (Pigmentiphaga kullae) (protein)
chain: MNIAIIGATGNVGSRLVNEALARGHHVTAIARHASRLAARPGLDTLDIDLADGAKLAGALRGKDAAISSVRFATSPLAAVLGPVRQAGLRRLLVVGGAGSLEVAPGAALVDTPTFPAEYKPEALAGRDWLNALRTEKDLDWTFLSPSALFVPGERTGTFRLGGDTLLTAADGRSWISMEDFAIAMLDEVEKPAHTGRRFTVGY
Consider B1, for which the Km in series [1] was 170 µM; in series [2] it was 1.0 µM; in series [3], 3.0 µM. Besides, the Vmax in series [1] worked out at 17 µmol/min/mg; in series [2], 33 µmol/min/mg; in series [3], 36 µmol/min/mg.
